From patent US20100113339A1

Legend:
[1] = target: mouse serum albumin (mouse) (UniProt P07724); experiment: SPR Biacore 3000; mouse albumin against human/rhesus albumin as reference
[2] = target: rhesus serum albumin (rhesus) (UniProt Q28522); experiment: SPR Biacore 3000, albumin amine-coupled on CM5 chip, nanobody concentration series
[3] = target: mouse serum albumin (mouse) (UniProt P07724); experiment: as above
[4] = target: human serum albumin (human) (UniProt P02768); experiment: as above

Chain of rhesus serum albumin (rhesus) (Q28522 17-600 limits assumed): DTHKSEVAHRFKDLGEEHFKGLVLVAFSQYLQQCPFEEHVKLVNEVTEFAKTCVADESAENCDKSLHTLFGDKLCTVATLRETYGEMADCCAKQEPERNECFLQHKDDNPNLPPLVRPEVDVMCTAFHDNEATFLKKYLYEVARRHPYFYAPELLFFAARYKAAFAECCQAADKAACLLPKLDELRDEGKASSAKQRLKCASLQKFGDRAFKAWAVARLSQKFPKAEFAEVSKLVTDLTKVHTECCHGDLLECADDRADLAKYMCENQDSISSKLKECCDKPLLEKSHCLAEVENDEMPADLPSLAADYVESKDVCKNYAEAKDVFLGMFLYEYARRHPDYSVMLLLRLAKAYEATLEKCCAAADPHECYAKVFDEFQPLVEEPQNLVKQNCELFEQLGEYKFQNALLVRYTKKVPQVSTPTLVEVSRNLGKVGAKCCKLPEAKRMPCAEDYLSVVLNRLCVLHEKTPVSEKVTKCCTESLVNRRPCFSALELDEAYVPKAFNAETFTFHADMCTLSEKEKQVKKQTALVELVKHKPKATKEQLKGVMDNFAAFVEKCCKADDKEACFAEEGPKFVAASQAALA
Chain of mouse serum albumin (mouse) (P07724 25-608 limits assumed): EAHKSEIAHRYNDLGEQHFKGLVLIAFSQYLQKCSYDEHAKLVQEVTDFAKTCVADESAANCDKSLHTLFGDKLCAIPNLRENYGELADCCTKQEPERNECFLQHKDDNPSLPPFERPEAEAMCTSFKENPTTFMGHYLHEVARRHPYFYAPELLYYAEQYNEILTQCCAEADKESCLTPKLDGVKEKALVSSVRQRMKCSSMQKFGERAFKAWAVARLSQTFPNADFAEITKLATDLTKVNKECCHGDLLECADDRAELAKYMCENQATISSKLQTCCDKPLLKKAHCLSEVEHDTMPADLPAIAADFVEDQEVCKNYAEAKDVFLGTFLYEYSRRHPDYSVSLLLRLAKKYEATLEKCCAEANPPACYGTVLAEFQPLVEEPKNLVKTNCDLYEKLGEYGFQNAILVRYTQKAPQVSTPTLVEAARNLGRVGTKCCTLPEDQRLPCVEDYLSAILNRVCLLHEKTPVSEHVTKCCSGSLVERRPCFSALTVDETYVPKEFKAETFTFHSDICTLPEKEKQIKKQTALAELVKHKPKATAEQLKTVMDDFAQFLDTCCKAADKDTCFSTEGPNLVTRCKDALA
Chain of PMP6A6 (ALB1) (VHH) (VHH): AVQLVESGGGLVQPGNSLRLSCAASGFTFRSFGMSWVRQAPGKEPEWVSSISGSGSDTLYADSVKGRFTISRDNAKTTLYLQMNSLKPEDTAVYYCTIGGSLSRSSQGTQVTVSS

factor of difference in affinity for human/rhesus versus mouse serum albumin [1]: 12 fold | Kd [2]: 520 pM | koff [2]: 0.000546 s⁻¹ | kon [2]: 1.05e+06 M⁻¹ s⁻¹ | Kd [3]: 6500 pM | koff [3]: 0.00725 s⁻¹ | kon [3]: 1.11e+06 M⁻¹ s⁻¹ | Kd [4]: 570 pM | koff [4]: 0.00063 s⁻¹ | kon [4]: 1.11e+06 M⁻¹ s⁻¹
Substance: PMP6A6 (ALB1) (VHH)
